Patent publication US20240261333A1 (published 2024)

Legend:
Experiment in all cases: co-IP with anti-FLAG, mass spectrometry; lysate of cells with N-FLAG B3GNT2
IPO13 = molecular target: T1, IPO13 (human, UniProt O94829 1-963)
T1 construct: also called NP_055467.3
T1 sequence (looked up): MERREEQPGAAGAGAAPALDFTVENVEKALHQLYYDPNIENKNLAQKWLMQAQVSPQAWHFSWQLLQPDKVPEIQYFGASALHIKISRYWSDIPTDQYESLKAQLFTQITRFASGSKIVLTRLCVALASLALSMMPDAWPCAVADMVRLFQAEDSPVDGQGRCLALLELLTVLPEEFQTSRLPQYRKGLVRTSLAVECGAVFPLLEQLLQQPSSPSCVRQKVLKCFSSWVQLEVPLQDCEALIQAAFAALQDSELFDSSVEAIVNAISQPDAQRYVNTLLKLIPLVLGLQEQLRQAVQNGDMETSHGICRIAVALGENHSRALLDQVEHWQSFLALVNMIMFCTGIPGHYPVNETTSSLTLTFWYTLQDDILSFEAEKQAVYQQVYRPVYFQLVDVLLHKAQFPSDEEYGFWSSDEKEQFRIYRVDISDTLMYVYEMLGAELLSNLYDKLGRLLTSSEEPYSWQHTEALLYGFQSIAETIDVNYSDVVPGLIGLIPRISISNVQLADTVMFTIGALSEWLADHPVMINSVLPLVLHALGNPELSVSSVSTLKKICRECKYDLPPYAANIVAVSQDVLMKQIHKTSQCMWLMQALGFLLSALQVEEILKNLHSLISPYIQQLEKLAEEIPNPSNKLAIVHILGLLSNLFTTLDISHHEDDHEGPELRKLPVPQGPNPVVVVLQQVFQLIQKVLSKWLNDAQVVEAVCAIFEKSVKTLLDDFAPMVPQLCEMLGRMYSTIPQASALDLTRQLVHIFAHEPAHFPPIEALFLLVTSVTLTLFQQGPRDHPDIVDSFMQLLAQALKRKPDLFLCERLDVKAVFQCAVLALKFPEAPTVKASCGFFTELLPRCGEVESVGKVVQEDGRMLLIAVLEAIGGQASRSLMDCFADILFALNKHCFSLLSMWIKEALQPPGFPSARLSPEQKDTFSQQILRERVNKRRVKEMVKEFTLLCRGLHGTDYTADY
Protocol: (§1) Cells were plated in 10-cm cell culture dishes and grown to 60-80% confluency. For each condition, two biological replicates were harvested for co-IP. Cells were washed with PBS and 4 mL of lysis buffer (20 mM HEPES, 1% Triton X-100, 150 mM NaCl, 1 mM EDTA, and 10% glycerol) containing protease inhibitor cocktail was added. Cells were scraped and lysate was incubated at 4° C. under rotary agitation for 1 h. Lysate was centrifuged at 14,000×g for 10 min at 4° C. Supernatant was transferred to a new tube and an aliquot was taken as the input. […] For Western blots, 10 μg/mL Chicken Anti-FLAG (Aves labs ET-DY100) and IgY control (R&D Systems AB-101-C) antibodies were biotinylated (Thermo Fisher Scientific 90407) and added to the respective conditions. Lysates with antibodies were incubated at 4° C. under rotary agitation overnight. For each mL of lysate, 50 μL of Pierce Protein A/G Magnetic Beads (Mass spectrometry; Thermo Fisher Scientific 88803) or Pierce Streptavidin Magnetic Beads (Western blot; Thermo Fisher Scientific 88817) was washed twice with lysis buffer. Lysates with antibodies were added to the beads and incubated at 4° C. under rotary agitation for 4 h. Beads were washed with lysis buffer 3 times and resuspended in lysis buffer for storage.
(§2) Magnetic beads were resuspended in 100 mM Tris pH 7.8, reduced, alkylated and digested with trypsin at 37° ° C. overnight. This solution was subjected to solid phase extraction to concentrate the peptides and remove unwanted reagents followed by injection onto a Shimadzu HPLC with fraction collector. Eight fractions were collected and after concentration were injected on a Waters NanoAcquity HPLC equipped with a self-packed Aeris 3 μm C18 analytical column 0.075 mm by 20 cm, (Phenomenex). Peptides were eluted using standard reverse-phase gradients. The effluent from the column was analyzed using a Thermo Orbitrap Elite mass spectrometer (nanospray configuration) operated in a data dependent manner for 54 minutes. The resulting fragmentation spectra were correlated against the known database using Proteome Discover 1.4 (Thermo Fisher Scientific).

CTHRC1 = molecular target: T2, CTHRC1 (human, UniProt Q96CG8-3 1-229, limits assumed)
T2 construct: also called NP_001243028.1 (+1)
T2 sequence (Q96CG8 other isoform, or with tags, fused parts or gaps limits assumed): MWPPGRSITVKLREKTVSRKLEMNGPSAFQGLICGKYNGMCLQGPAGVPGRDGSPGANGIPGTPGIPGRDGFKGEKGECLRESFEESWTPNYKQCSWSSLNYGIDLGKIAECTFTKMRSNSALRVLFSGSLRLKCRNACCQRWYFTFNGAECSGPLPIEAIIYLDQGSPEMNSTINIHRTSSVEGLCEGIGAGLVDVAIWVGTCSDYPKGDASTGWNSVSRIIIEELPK
Protocol: as §1, §2

STAU2 = molecular target: T3, STAU2 (human, UniProt Q9NUL3 1-570, limits assumed)
T3 construct: also called NP_001157852.1 (+4)
T3 sequence (looked up): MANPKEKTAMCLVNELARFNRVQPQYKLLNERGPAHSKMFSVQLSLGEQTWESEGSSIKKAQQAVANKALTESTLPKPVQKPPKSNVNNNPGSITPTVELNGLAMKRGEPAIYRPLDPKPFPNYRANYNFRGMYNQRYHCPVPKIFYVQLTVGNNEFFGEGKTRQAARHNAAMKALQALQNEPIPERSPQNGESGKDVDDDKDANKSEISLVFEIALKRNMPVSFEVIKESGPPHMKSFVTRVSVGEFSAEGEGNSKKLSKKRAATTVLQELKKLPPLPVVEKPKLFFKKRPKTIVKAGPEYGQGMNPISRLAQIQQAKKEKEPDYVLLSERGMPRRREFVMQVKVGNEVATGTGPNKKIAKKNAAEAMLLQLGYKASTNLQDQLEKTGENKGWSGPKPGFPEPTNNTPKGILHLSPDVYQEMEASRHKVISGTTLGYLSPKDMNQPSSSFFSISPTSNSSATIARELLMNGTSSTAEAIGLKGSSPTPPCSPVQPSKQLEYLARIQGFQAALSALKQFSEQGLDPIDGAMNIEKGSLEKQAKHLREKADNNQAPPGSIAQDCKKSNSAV
Protocol: as §1, §2

RPL32 = RPL32 (human, UniProt P62910 2-135)
Protocol: as §1, §2

GALNT2 = molecular target: T4, GALNT2 (human, UniProt Q10471 1-571, limits assumed)
T4 construct: also called NP_001278795.1 (+1)
T4 sequence (Q10471 whole entry): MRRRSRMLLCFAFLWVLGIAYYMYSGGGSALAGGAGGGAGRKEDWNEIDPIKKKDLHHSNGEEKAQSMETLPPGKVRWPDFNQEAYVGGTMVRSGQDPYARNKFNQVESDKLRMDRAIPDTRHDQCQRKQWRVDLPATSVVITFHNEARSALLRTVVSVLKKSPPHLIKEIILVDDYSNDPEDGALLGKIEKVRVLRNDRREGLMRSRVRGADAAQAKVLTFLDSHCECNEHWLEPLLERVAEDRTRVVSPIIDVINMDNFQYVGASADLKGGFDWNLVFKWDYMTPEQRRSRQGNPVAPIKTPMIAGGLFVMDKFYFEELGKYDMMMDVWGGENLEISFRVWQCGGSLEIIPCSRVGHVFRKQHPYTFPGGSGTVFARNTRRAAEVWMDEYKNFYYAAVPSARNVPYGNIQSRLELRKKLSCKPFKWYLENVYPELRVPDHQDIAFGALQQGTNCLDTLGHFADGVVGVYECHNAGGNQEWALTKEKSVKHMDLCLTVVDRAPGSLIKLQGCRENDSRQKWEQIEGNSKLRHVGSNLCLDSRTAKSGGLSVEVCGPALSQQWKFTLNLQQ
Protocol: as §1, §2

CD70 = molecular target: T5, CD70 (human, UniProt P32970 1-193)
T5 construct: also called NP_001243.1
T5 sequence (looked up): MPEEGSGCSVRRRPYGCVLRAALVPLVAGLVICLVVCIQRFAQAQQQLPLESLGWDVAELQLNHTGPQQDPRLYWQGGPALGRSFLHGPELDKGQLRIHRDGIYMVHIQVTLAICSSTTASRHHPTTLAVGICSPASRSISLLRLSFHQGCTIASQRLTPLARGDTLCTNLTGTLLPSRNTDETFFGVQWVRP
Protocol: as §1, §2

Measured: co-IP mass spectrometry count

B1: N-terminal FLAG tagged B3GNT2 (enzyme, human, UniProt Q9NY97 1-397, looked up)
chain: MSVGRRRIKLLGILMMANVFIYFIMEVSKSSSQEKNGKGEVIIPKEKFWKISTPPEAYWNREQEKLNRQYNPILSMLTNQTGEAGRLSNISHLNYCEPDLRVTSVVTGFNNLPDRFKDFLLYLRCRNYSLLIDQPDKCAKKPFLLLAIKSLTPHFARRQAIRESWGQESNAGNQTVVRVFLLGQTPPEDNHPDLSDMLKFESEKHQDILMWNYRDTFFNLSLKEVLFLRWVSTSCPDTEFVFKGDDDVFVNTHHILNYLNSLSKTKAKDLFIGDVIHNAGPHRDKKLKYYIPEVVYSGLYPPYAGGGGFLYSGHLALRLYHITDQVHLYPIDDVYTGMCLQKLGLVPEKHKGFRTFDIEEKNKNNICSYVDLMLVHSRKPQEMIDIWSQLQSAHLKC
notes: Bait of the co-IP; pulled down with mouse anti-FLAG (Millipore Sigma F3165) from cell lysate; also called N-FLAG B3GNT2; N-term FLAG; not shown: N-terminal FLAG tag
0: all assays above
